molecular target: HLA-A*02:01 (Homo sapiens, UniProt P04439, D140Y/D185E/D98H/E176V/E277Q/G131W/G231S/I119V/I121R/I166T/I218V/L300P/L318F/N151K/N90K/P208A/P217A/Q86G/Q94H/R138H/R169H/T345S); assay: MHC binding assay (UV-ligand exchange, ELISA, peptide exchange yield); settings: binding of HLA-class I restricted peptides to HLA-A*02:01
Source text: Candidate peptides for T cell based therapies according to the present invention were further tested for their MHC binding capacity (affinity). The individual peptide-MHC complexes were produced by UV-ligand exchange, where a UV-sensitive peptide is cleaved upon UV-irradiation, and exchanged with the peptide of interest as analyzed. Only peptide candidates that can effectively bind and stabilize the peptide-receptive MHC molecules prevent dissociation of the MHC complexes. To determine the yield of the exchange reaction, an ELISA was performed based on the detection of the light chain ([…]) of stabilized MHC complexes. The assay was performed as generally described in Rodenko et al. (Rodenko et al., 2006).
96 well MAXISorp plates (NUNC) were coated over night with 2-ug/ml streptavidin in PBS at room temperature, washed 4× and blocked for 1 h at 37° C. in 2% BSA containing blocking buffer. […] Peptide-MHC monomers of the UV-exchange reaction were diluted 100 fold in blocking buffer. Samples were incubated for 1 h at 37° C., washed four times, incubated with 2-ug/ml HRP conjugated anti-β2m for 1 h at 37° C., washed again and detected with TMB solution that is stopped with […]. Absorption was measured at 450 nm. Candidate peptides that show a high exchange yield (preferably higher than 50%, most preferred higher than 75%) are generally preferred for a generation and production of antibodies or fragments thereof, and/or T cell receptors or fragments thereof, as they show sufficient avidity to the MHC molecules and prevent dissociation of the MHC complexes.

Row | Substance | Peptide exchange (MHC class I binding score, peptide exchange yield)
1 | 62 (VLLDVSAGQLLM; listed as Homo sapiens) [compound 62] | ″++++″ (≥75% = ++++)
2 | 63 (YLLPSGGSVTL; listed as Homo sapiens) [compound 63] | ″++″ (≥20% = ++)
3 | 64 (YAAPGGLIGV; listed as Homo sapiens) [compound 64] | ″++″ (≥20% = ++)
4 | 70 (GLLDYPVGV; listed as Homo sapiens) [compound 70] | ″+++″ (≥50% = +++)
5 | 72 (SLLELDGINL; listed as Homo sapiens) [compound 72] | ″+++″ (≥50% = +++)
6 | 75 (GLLEVMVNL; listed as Homo sapiens) [compound 75] | ″+++″ (≥50% = +++)
7 | 84 (VTFGEKLLGV; listed as Homo sapiens) [compound 84] | ″++″ (≥20% = ++)
8 | 86 (NLIGKIENV; listed as Homo sapiens) [compound 86] | ″+++″ (≥50% = +++)
9 | 92 (YLIPFTGIVGL; listed as Homo sapiens) [compound 92] | ″++″ (≥20% = ++)
10 | 93 (LLQAIKLYL; listed as Homo sapiens) [compound 93] | ″++″ (≥20% = ++)
11 | 94 (YLIDIKTIAI; listed as Homo sapiens) [compound 94] | ″++″ (≥20% = ++)
12 | 95 (SVIPQIQKV; listed as Homo sapiens) [compound 95] | ″+++″ (≥50% = +++)
13 | 96 (YIFTDNPAAV; listed as Homo sapiens) [compound 96] | ″+++″ (≥50% = +++)
14 | 97 (SLINGSFLV; listed as Homo sapiens) [compound 97] | ″+++″ (≥50% = +++)
15 | 98 (LIIDQADIYL; listed as Homo sapiens) [compound 98] | ″+++″ (≥50% = +++)
16 | 99 (ALVSKGLATV; listed as Homo sapiens) [compound 99] | ″++″ (≥20% = ++)

Row | Substance | Peptide exchange (MHC class I binding score, peptide exchange yield)
17 | 100 (YLLSTNAQL; listed as Homo sapiens) [compound 100] | ″++++″ (≥75% = ++++)
18 | 101 (ILVGGGALATV; listed as Homo sapiens) [compound 101] | ″+++″ (≥50% = +++)
19 | 104 (STMEQNFLL; listed as Homo sapiens) [compound 104] | ″++++″ (≥75% = ++++)
20 | 106 (LLYDAVHIVSV; listed as Homo sapiens) [compound 106] | ″+++″ (≥50% = +++)
21 | 107 (FLQPVDDTQHL; listed as Homo sapiens) [compound 107] | ″+++″ (≥50% = +++)
22 | 109 (IILSILEQA; listed as Homo sapiens) [compound 109] | ″++++″ (≥75% = ++++)
23 | 110 (FLSQVDFEL; listed as Homo sapiens) [compound 110] | ″+++″ (≥50% = +++)
24 | 111 (YVWGFYPAEV; listed as Homo sapiens) [compound 111] | ″+++″ (≥50% = +++)
25 | 114 (SLVGEPILQNV; listed as Homo sapiens) [compound 114] | ″++″ (≥20% = ++)
26 | 115 (AIAGAGILYGV; listed as Homo sapiens) [compound 115] | ″++″ (≥20% = ++)
27 | 120 (ALLGIPLTLV; listed as Homo sapiens) [compound 120] | ″+++″ (≥50% = +++)
28 | 121 (GVVDPRAISVL; listed as Homo sapiens) [compound 121] | ″++″ (≥20% = ++)
29 | 122 (FLLAEDDIYL; listed as Homo sapiens) [compound 122] | ″+++″ (≥50% = +++)
30 | 124 (ALYETELADA; listed as Homo sapiens) [compound 124] | ″++″ (≥20% = ++)
31 | 127 (KIGDEPPKV; listed as Homo sapiens) [compound 127] | ″++″ (≥20% = ++)

Now from value to substance:

Row | Peptide exchange (MHC class I binding score, peptide exchange yield) | Substance
32 | ″+++″ (≥50% = +++) | 66 (FLDENIGGVAV; listed as Homo sapiens) [compound 66]
33 | ″+++″ (≥50% = +++) | 67 (TLLAEALVTV; listed as Homo sapiens) [compound 67]
34 | ″++++″ (≥75% = ++++) | 68 (SLMELPRGLFL; listed as Homo sapiens) [compound 68]
35 | ″+++″ (≥50% = +++) | 69 (FQLDPSSGVLVTV; listed as Homo sapiens) [compound 69]
36 | ″+++″ (≥50% = +++) | 71 (GILARIASV; listed as Homo sapiens) [compound 71]
37 | ″+++″ (≥50% = +++) | 73 (NIFDLQIYV; listed as Homo sapiens) [compound 73]
38 | ″+++″ (≥50% = +++) | 74 (ALLDPEVLSIFV; listed as Homo sapiens) [compound 74]
39 | ″+++″ (≥50% = +++) | 76 (ILIDSIYKV; listed as Homo sapiens) [compound 76]
40 | ″++++″ (≥75% = ++++) | 77 (ILVEADGAWVV; listed as Homo sapiens) [compound 77]
41 | ″+++″ (≥50% = +++) | 78 (SLFSSLEPQIQPV; listed as Homo sapiens) [compound 78]
42 | ″++″ (≥20% = ++) | 80 (FLYDNLVESL; listed as Homo sapiens) [compound 80]
43 | ″++″ (≥20% = ++) | 81 (FLFSQLQYL; listed as Homo sapiens) [compound 81]
44 | ″+++″ (≥50% = +++) | 82 (FLSSVTYNL; listed as Homo sapiens) [compound 82]
45 | ″+++″ (≥50% = +++) | 83 (ILAPTVMMI; listed as Homo sapiens) [compound 83]
46 | ″+++″ (≥50% = +++) | 85 (KMSELRVTL; listed as Homo sapiens) [compound 85]
47 | ″++″ (≥20% = ++) | 87 (ALPEAPAPLLPHIT; listed as Homo sapiens) [compound 87]
48 | ″+++″ (≥50% = +++) | 88 (FLLVGDLMAV; listed as Homo sapiens) [compound 88]
49 | ″++++″ (≥75% = ++++) | 89 (YILPTETIYV; listed as Homo sapiens) [compound 89]
50 | ″+++″ (≥50% = +++) | 90 (TLLQIIETV; listed as Homo sapiens) [compound 90]
51 | ″++++″ (≥75% = ++++) | 91 (IMQDFPAEIFL; listed as Homo sapiens) [compound 91]
52 | ″+++″ (≥50% = +++) | 102 (YLFESEGLVL; listed as Homo sapiens) [compound 102]
53 | ″+++″ (≥50% = +++) | 103 (TLAEEVVAL; listed as Homo sapiens) [compound 103]
54 | ″++++″ (≥75% = ++++) | 108 (ALFPGVALLLA; listed as Homo sapiens) [compound 108]
55 | ″+″ (≥10% = +) | 116 (YHIDEEVGF; listed as Homo sapiens) [compound 116]
56 | ″+++″ (≥50% = +++) | 117 (ILPDGEDFLAV; listed as Homo sapiens) [compound 117]
57 | ″++++″ (≥75% = ++++) | 119 (FLYIGDIVSL; listed as Homo sapiens) [compound 119]
58 | ″+++″ (≥50% = +++) | 123 (NLWDLTDASVV; listed as Homo sapiens) [compound 123]
59 | ″+++″ (≥50% = +++) | 125 (VQIHQVAQV; listed as Homo sapiens) [compound 125]
60 | ″++++″ (≥75% = ++++) | 126 (VLAYFLPEA; listed as Homo sapiens) [compound 126]
61 | ″++″ (≥20% = ++) | 128 (YLFDDPLSAV; listed as Homo sapiens) [compound 128]

From US10227388B2, “Peptides and combination of peptides for use in immunotherapy against non-small cell lung cancer and other cancers” (immatics biotechnologies GmbH, priority 2015, dated 2019)
